Source: patent US8093037B2, “Engineered microorganisms with enhanced fermentation activity” (Verdezyne, Inc., priority 2009, dated 2012)

Tests used:
[1] = Heterologous xylose isomerase expression in yeast (active yes/no); assay type: cell-based, Saccharomyces cerevisiae; settings: xylose isomerase of donor organism expressed in engineered yeast (S. cerevisiae)
[2] = Xylose isomerase activity assay (sorbitol dehydrogenase/NADH coupled, Kuyper et al.), soluble whole cell extract; assay type: biochemical, Saccharomyces cerevisiae
[3] = EDA activity assay with saturating amounts of E. coli expressed EDD extract; assay type: biochemical, Saccharomyces cerevisiae
Procedure: Grow 5 ml LB-Kan preps of BF1055 (BL21/DE3 with pET26b empty vector) and BF1706 (BL21DE3 with pET26b+E. coli EDD).
Grow 50 ml LB-Kan prep of BF1055, 2% (v/v) inoculate.
Grow 50 ml prep of BF1706 using Novagen's Overnight Express (46.45 ml LB-Kan, 1 ml solution 1, 2.5 ml solution 2, 50 μl solution 3, 5 μl of 1M MnCl2, 50 μl of 0.5 M FeCl2), 2% (v/v) inoculate.
Inoculate to OD600 of 0.2.
EDD extractions (adapted from Chemyan et al, Protein Science 16:2368-2377, 2007): • 1) Pellet cells in 50 ml conical tubes, 4° C., 3,000 rpm, 10 mins, discard supernatant. • 2) Resuspend in 2 ml degassed PDGH buffer (20 mM MES pH 6.5, 30 mM NaCl, 5 mM MnCl2, 0.5 mM FeCl2, 10 mM 2-mercaptoethanol, 10 mM cysteine, sparged with nitrogen gas). Move to hungate tube. • 3) Add 0.1% Triton X-100, 10 ng/ml DNase, 10 μg/ml PMSF, 10 μg/ml TAME (Nα-(p-toluene sulfonyl)-L-arginine methyl ester), 100 μg/ml lysozyme. • 4) Sparge hungate tube with nitrogen gas, cap and seal. Incubate 2 hours at 37° C., swirl occasionally. • 5) Clarify by centrifugation in 2-ml tube, 4° C., 10 mins, 14,000 rpm. Keep supernatant. • 6) Treat with 150 mM pyruvate and 10 mM sodium cyanoborohydride (work in hood) to inactivate aldolase activity. Incubate 30 mins at room temperature. • 7) During incubation, pre-equilibrate PD-10 column from GE • a. Remove top cap, pour off storage buffer. • b. Cut off bottom tip, fit in 50 ml conical with adapter. • c. Pour 5 ml of 20 mM MES buffer, pH 6.5 (total of 5 times). Discard flow-through. • 8) Run sample through column, then add MES buffer to a total of 2.5 ml volume added. Discard flow-through. • 9) Run 3.5 ml 20 mM MES pH 6.5 buffer to elute protein. Discard column in appropriate waste receptacle. • 10) Perform Bradford assay (1:10 or 1:20 dilution). […]
Each reaction contains 50 mM Tris-HCl, pH 7, 10 mM MgCl2, 0.15 mM NADH, 15 μg LDH, saturating amounts of EDD determined empirically (usually ˜100 μg), 1-50 μg EDA (depending on level of activity), and 1 mM 6-phosphogluconate. Reactions are started by the addition of 6-phosphogluconate and monitored for 5 mins at 30° C.

| Molecule | Active? (yes/no) [1] | also measured |
| --- | --- | --- |
| Bacteroides thetaiotaomicron: xylose isomerase of this donor organism, expressed in S. cerevisiae | Yes |  |
| Streptomyces rubiginosus: xylose isomerase of this donor organism, expressed in S. cerevisiae | No |  |
| Thermus thermophilus: xylose isomerase of this donor organism, expressed in S. cerevisiae | Yes |  |
| Actinoplanes missouriensis: xylose isomerase of this donor organism, expressed in S. cerevisiae | No |  |
| Bacillus subtilis: xylose isomerase of this donor organism, expressed in S. cerevisiae (protein, UniProt P0CI80 1-445, looked up, expressed in S. cerevisiae) Xylose isomerase: MAQSHSSSINYFGSANKVVYEGKDSTNPLAFKYYNPQEVIGGKTLKEHLRFSIAYWHTFTADGTDVFGAATMQRPWDHYKGMDLAKMRVEAAFEMFEKLDAPFFAFHDRDIAPEGSTLKETNQNLDMIMGMIKDYMRNSGVKLLWNTANMFTNPRFVHGAATSCNADVFAYAAAQVKKGLETAKELGAENYVFWGGREGYETLLNTDLKFELDNLARFMHMAVDYAKEIGYTGQFLIEPKPKEPTTHQYDTDAATTIAFLKQYGLDNHFKLNLEANHATLAGHTFEHELRMARVHGLLGSVDANQGHPLLGWDTDEFPTDLYSTTLAMYEILQNGGLGSGGLNFDAKVRRSSFEPDDLIYAHIAGMDAFARGLKVAHKLIEDRVFEDVIQHRYRSFTEGIGLEIIEGRANFHTLEQYALNHKSIKNESGRQEKLKAILNQYILEV | No |  |
| R. flavefaciens, FD-1 XI: xylose isomerase of Ruminococcus FD1, ZP_06143883.1, SEQ ID NO: 110 (protein, listed as Ruminococcus flavefaciens) MEFFKNISKIPYEGKDSTNPLAFKYYNPDEVIDGKKMRDIMKFALSWWHTMGGDGTDMFGCGTADKTWGENDPAARAKAKVDAAFEIMQKLSIDYFCFHDRDLSPEYGSLKDTNAQLDIVTDYIKAKQAETGLKCLWGTAKCFDHPRFMHGAGTSPSADVFAFSAAQIKKALESTVKLGGTGYVFWGGREGYETLLNTNMGLELDNMARLMKMAVEYGRSIGFKGDFYIEPKPKEPTKHQYDFDTATVLGFLRKYGLDKDFKMNIEANHATLAQHTFQHELCVARTNGAFGSIDANQGDPLLGWDTDQFPTNIYDTTMCMYEVIKAGGFTNGGLNFDAKARRGSFTPEDIFYSYIAGMDAFALGYKAASKLIADGRIDSFISDRYASWSEGIGLDIISGKADMAALEKYALEKGEVTDSISSGRQELLESIVNNVIFNL |  | slope of the activity at saturating xylose (FIG. 25) ([2]; 500 mM xylose, 100 μg total soluble crude extract): highest activity of the candidates tested; specific activity relative to the native XI control ([2]; xylose between 40 and 500 nM): greater than 2 fold |
| Burkholderia xenovorans: xylose isomerase of this donor organism, expressed in S. cerevisiae (protein, UniProt Q13RB8 1-440, looked up) Xylose isomerase: MSYFEHIPEIRYEGPQSDNPLAYRHYDKSKKVLGKTLEEHLRIAVCYWHTFVWPGVDIFGQGTFRRPWQQAGDAMERARQKADSAFEFFSKLGTPYYTFHDTDVSPEGSSLKEYSENFLRITDYLARKQEDTGIKLLWGTANLFSHPRYAAGAATSPDPEVFAFAATQVRHALDATQRLGGDNYVLWGGREGYDTLLNTDLMRERDQLARFLHMVVDHAHKIGFKGSLLIEPKPQEPTKHQYDYDVATVHGFLLQHGLEKEIRVNIEANHATLAGHSFHHEIATAYALGIFGSVDANRGDPQNGWDTDQFPNSVEELTLAFYEILKHGGFTTGGMNFDSKVRRQSVDPEDLFYGHIGAIDNLALAVERAAVLIENDRLDQFKRQRYAGWDADFGRKILSGDYSLSTLATDALARGLNPQHASGHQELMENIVNQAIYSGR | No |  |
| Clostridium thermosulfurogenes: xylose isomerase of this donor organism, expressed in S. cerevisiae (protein, UniProt P19148 1-439, looked up) Xylose isomerase: MNKYFENVSKIKYEGPKSNNPYSFKFYNPEEVIDGKTMEEHLRFSIAYWHTFTADGTDQFGKATMQRPWNHYTDPMDIAKARVEAAFEFFDKINAPYFCFHDRDIAPEGDTLRETNKNLDTIVAMIKDYLKTSKTKVLWGTANLFSNPRFVHGASTSCNADVFAYSAAQVKKALEITKELGGENYVFWGGREGYETLLNTDMEFELDNFARFLHMAVDYAKEIGFEGQFLIEPKPKEPTKHQYDFDVANVLAFLRKYDLDKYFKVNIEANHATLAFHDFQHELRYARINGVLGSIDANTGDMLLGWDTDQFPTDIRMTTLAMYEVIKMGGFDKGGLNFDAKVRRASFEPEDLFLGHIAGMDAFAKGFKVAYKLVKDRVFDKFIEERYASYKDGIGADIVSGKADFRSLEKYALERSQIVNKSGRQELLESILNQYLFAE | No |  |
| Escherichia coli: xylose isomerase of this donor organism, expressed in S. cerevisiae (protein, UniProt P00944 1-440, looked up) Xylose isomerase: MQAYFDQLDRVRYEGSKSSNPLAFRHYNPDELVLGKRMEEHLRFAACYWHTFCWNGADMFGVGAFNRPWQQPGEALALAKRKADVAFEFFHKLHVPFYCFHDVDVSPEGASLKEYINNFAQMVDVLAGKQEESGVKLLWGTANCFTNPRYGAGAATNPDPEVFSWAATQVVTAMEATHKLGGENYVLWGGREGYETLLNTDLRQEREQLGRFMQMVVEHKHKIGFQGTLLIEPKPQEPTKHQYDYDAATVYGFLKQFGLEKEIKLNIEANHATLAGHSFHHEIATAIALGLFGSVDANRGDAQLGWDTDQFPNSVEENALVMYEILKAGGFTTGGLNFDAKVRRQSTDKYDLFYGHIGAMDTMALALKIAARMIEDGELDKRIAQRYSGWNSELGQQILKGQMSLADLAKYAQEHHLSPVHQSGRQEQLENLVNHYLFDK | No |  |
| Staphylococcus xylosus: xylose isomerase of this donor organism, expressed in S. cerevisiae (protein, UniProt P27157 1-439, looked up) Xylose isomerase: MSYFDINKVNYEGPKSNNAFSFKYYNPEEKLGNHSMSELLRFSVAYWHTFTADLSDPFGVGVAERDWDSLDEMEKAKARVEAIFEFMEKTRIDYFCFHDVDISPEGASLKESNENLDIIVELIKEKMDQTGKKLLWNTTNNFTHERFVHGAATSSNAEVFAYAAAKVKKSLEIAKKLGSENFVFWGGREGYESLLNTNMKLELDNLATFFKMAKSYADEIGYTGQFLIEPKPKEPTTHQYDTDVATAHAFLQKYDLDKDFKFNIEANHATLAGHTFQHELRYARDNNMLGSVDANQGHPLLGWDTDESTDVYDTTLAMYEILKNGGLAPGGLNFDAKPRRTSFKQEDLILTHIAGMDTFALGLRVAYKMIEDNFFENIMDEKYKSFNEGIGKKIVEGETSLKELEDYAFNINTINNTSDHLEVIKSQINQYILNINNKD | No |  |
| Bacillus licheniformis: xylose isomerase of this donor organism, expressed in S. cerevisiae (protein, UniProt P77832 1-448, looked up) Xylose isomerase: MFFRNIGMIEYEGADSENPYAFKYYNPDEFVGGKTMKEHLRFAVAYWHTFDADGKDPFGDGTMFRAWNRLTHPLDKAKARAEAAFEFFEKLGVPYFCFHDVDIVDEGATLRETFTYLDQMSSFLKEMMETSHVQLLWNTANMFTHPRYVHGAATSCNADVYAYAAAKVKKGLDIAKELGAENYVFWGGREGYETLLNTDMKLELENLSSFYRMAVEYAREIGFDGQFLIEPKPKEPTKHQYDFDAATTIAFLETYGLKDHFKLNLEANHATLAGHTFEHELRVAALHDMLGSIDANQGDLLLGWDTDEFPTDLYSAVLAMYEILKAGGFKTGGINFDAKVRRPSFADEDLFHAHIAGMDTYAVGLKVASRLLEDKALDQVIEERYESYTKGIGLEIKEGRTDLKKLAAYALENDHIENQSGRQERLKATVNRYLLNALREAPAGKETH | No |  |
| EDA-E. coli: 2-keto-3-deoxygluconate-6-phosphate aldolase (eda) of E. coli (protein, UniProt P0A955 1-213, looked up) KHG/KDPG aldolase: MKNWKTSAESILTTGPVVPVIVVKKLEHAVPMAKALVAGGVRVLEVTLRTECAVDAIRAIAKEVPEAIVGAGTVLNPQQLAEVTEAGAQFAISPGLTEPLLKAATEGTIPLIPGISTVSELMLGMDYGLKEFKFFPAEANGGVKALQAIAGPFSQVRFCPTGGISPANYRDYLALKSVLCIGGSWLVPADALEAGDYDRITKLAREAVEGAKL |  | EDA activity compared to the other EDAs, repeated experiment (FIG. 24) ([3]; 100 μg EDD and 25 μg EDA cell lysate (5 μg of E. coli EDA)): most active of those EDA's tested; EDA activity compared to the other EDAs ([3]; first experiment): higher activity as compared to the other EDA activities; EDA activity relative to the EDA from P. aeruginosa ([3]; first experiment, E. coli slope outside linear range): approximately 16 fold |
